These results are taken from article PMC5938748 (Molecular microbiology, 2012).

Data set [1] deals with T1, Bacillus subtilis MutS (B. subtilis, UniProt P49849 1-858).
T1 sequence (looked up): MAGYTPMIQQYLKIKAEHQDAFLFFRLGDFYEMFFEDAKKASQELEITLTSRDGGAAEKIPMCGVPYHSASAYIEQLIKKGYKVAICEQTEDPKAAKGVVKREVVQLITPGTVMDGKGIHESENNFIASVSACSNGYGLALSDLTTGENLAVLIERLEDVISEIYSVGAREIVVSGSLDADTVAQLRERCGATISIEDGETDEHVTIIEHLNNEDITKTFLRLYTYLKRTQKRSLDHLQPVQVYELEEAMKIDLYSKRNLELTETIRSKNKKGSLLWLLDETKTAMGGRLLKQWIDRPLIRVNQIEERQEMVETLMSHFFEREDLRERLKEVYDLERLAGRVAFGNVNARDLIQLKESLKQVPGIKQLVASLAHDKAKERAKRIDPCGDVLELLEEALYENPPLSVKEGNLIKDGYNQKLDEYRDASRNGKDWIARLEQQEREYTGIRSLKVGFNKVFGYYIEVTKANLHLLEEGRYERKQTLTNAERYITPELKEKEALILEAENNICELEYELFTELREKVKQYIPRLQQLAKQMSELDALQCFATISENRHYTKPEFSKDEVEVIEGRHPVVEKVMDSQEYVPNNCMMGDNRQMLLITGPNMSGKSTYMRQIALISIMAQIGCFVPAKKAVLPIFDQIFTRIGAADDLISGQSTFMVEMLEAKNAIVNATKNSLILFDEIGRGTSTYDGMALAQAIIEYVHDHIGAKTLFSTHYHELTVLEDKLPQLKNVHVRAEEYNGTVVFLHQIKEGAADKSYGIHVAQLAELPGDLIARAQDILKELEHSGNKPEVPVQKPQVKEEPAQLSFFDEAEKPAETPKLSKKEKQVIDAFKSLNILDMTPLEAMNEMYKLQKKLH
Briefly: far-Western, overlay or dot blot.

Data set [2] concerns the target T2, Bacillus subtilis MutSF30A (B. subtilis, UniProt P49849 1-858, F30A).
T2 sequence (looked up): T1 sequence (looked up) with F30A
Briefly: far-Western, overlay or dot blot.

Data set [3] deals with T3, MutS (Bacillus subtilis, UniProt P49849 1-858).
T3 sequence: T1 sequence (looked up)
Briefly: 2-aminopurine fluorescence titration.

Numbering of substitutions follows the chain as printed.

B1: Bacillus subtilis processivity clamp DnaN (natural protein, B. subtilis, UniProt P05649 1-378, looked up)
chain: MKFTIQKDRLVESVQDVLKAVSSRTTIPILTGIKIVASDDGVSFTGSDSDISIESFIPKEEGDKEIVTIEQPGSIVLQARFFSEIVKKLPMATVEIEVQNQYLTIIRSGKAEFNLNGLDADEYPHLPQIEEHHAIQIPTDLLKNLIRQTVFAVSTSETRPILTGVNWKVEQSELLCTATDSHRLALRKAKLDIPEDRSYNVVIPGKSLTELSKILDDNQELVDIVITETQVLFKAKNVLFFSRLLDGNYPDTTSLIPQDSKTEIIVNTKEFLQAIDRASLLAREGRNNVVKLSAKPAESIEISSNSPEIGKVVEAIVADQIEGEELNISFSPKYMLDALKVLEGAEIRVSFTGAMRPFLIRTPNDETIVQLILPVRTY
Regarding B1, the binding result in data set [1] and in data set [2] was “binds” throughout.

B2: 2-AP(+T) T-bulge duplex (dsDNA)
DNA 1: TAAAGGAAGTCGTCTATATATGGTATGACTAAGTGTA
DNA 2: TACACTTAGTCATACCATTATAGACGACTTCCTTTA
modifications: 2-aminopurine at position 18 of strand 1 (written as A)
With B2, the affinity in data set [3], expressed as Kd, was 24 nM.
